Biological target: recombinant soluble trimeric gp140 from the clade A Ugandan HIV-1 field isolate 94UG018 (HIV-1 clade A isolate 94UG018)
Assay: SEC; final gel filtration on an SD200 column equilibrated with PBS; fractions corresponding to the gp140 trimer collected and pooled

Q: “recombinant soluble trimeric gp140 from the clade A Ugandan HIV-1 field isolate 94UG018 (natural protein)” was tested. Which stoichiometry N did it give?
A: 3

— article PMC3729709
